The text below walks through data of publication PMC8693861.

Usually Kd stands for the free concentration of one partner at which half of the binding sites on the other are occupied at equilibrium, for simple one-to-one binding. A lower Kd goes with higher affinity.

Assay [1] deals with full-length N-terminal signaling domain of human Sonic hedgehog (ShhN), residues 24-193, without lipid attachments (UniProt Q15465). As to the kind of experiment: BLI. Conditions: 4 μM SHH (per earlier reader's note; not printed in panel or legend); parent: est. 0.077; read off a plot.
For assay [2], the target named is biotinylated human HHAT-Avi-1D4 (pHR-CMV-TetO2-HHAT-wildtype-Avi-1D4) (human) (UniProt Q5VTY9). As to the kind of experiment: BLI; SHH on immobilised biotinylated HHAT-Avi-1D4, 22°C, same buffer without nhPalm-CoA. On the technique in general: BLI is a label-free optical method that tracks binding on a fibre tip over time.
Assay [3] has the same target. As to the kind of experiment: BLI; biotinylated HHAT-Avi-1D4 on streptavidin biosensors, 22°C, SHH in 10 mM HEPES pH 7.5, 150 mM NaCl, 0.06% DDM 40:1 CHS, 1 mM DTT, 5 mM CaCl2 with 5-10 mM nhPalm-CoA; multi-cycle kinetics, 300 s association and dissociation, 1:1.5 dilution series from 5 μM; one to two state binding model.

As for “biotinylated human HHAT-Avi-1D4 (pHR-CMV-TetO2-HHAT-wildtype-Avi-1D4) (from UniProt Q5VTY9) Y382A; Y384A”, the response in assay [1] is 0.011 nm. In assay [2], “full-length N-terminal signaling domain of human Sonic hedgehog (ShhN), residues 24-193, without lipid attachments (from UniProt Q15465 24-193) (domain or fragment)” gave a fold reduction of binding without nhPalm-CoA against with nhPalm-CoA of 3 fold and a percent reduction of binding without Palm-CoA of 50%. In assay [3], this substance yielded a Kd of 3.7 µM. As to “biotinylated human HHAT-Avi-1D4 (pHR-CMV-TetO2-HHAT-wildtype-Avi-1D4) (from UniProt Q5VTY9) E59R”, the response in assay [1] is -0.012 nm.
